Results published in paper PMC8546341, “A Novel β-Glucosidase From Chryseobacterium scophthalmum 1433 for Efficient Rubusoside Production From Stevioside” (Frontiers in Microbiology, 2021).

T1: CsBGL (Chryseobacterium scophthalmum, UniProt A0A8A3WQK4)
T1 construct: gene bgl
T1 sequence (A0A8A3WQK4 19-775): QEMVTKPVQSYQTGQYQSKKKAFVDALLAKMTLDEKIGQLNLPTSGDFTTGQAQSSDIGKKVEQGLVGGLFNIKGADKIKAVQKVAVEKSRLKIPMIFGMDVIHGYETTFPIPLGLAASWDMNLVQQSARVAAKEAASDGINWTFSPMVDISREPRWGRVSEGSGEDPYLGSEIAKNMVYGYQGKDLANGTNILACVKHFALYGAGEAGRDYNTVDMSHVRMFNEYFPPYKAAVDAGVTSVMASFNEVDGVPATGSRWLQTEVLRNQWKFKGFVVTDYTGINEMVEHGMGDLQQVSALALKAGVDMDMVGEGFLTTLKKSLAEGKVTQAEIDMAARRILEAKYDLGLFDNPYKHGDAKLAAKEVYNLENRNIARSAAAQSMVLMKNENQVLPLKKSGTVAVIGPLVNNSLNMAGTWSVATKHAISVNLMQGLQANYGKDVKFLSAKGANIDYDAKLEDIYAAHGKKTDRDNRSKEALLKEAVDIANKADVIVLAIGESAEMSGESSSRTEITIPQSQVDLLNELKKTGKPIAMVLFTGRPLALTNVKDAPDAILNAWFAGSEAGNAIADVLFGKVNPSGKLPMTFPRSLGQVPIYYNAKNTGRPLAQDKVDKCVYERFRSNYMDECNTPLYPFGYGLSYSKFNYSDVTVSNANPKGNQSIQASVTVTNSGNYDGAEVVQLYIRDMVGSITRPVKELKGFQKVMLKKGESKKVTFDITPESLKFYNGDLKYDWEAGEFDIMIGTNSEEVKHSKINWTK

B1: CsBGL (Chryseobacterium scophthalmum) (protein)
chain: T1 sequence (A0A8A3WQK4 19-775)

Experiments:
CsBGL = target: T1, CsBGL; assay: inhibition of pNP-β-Glc hydrolysis, p-nitrophenol at […] nm; assay type: biochemical; settings: substrate pNP-β-Glc 0.1–10 mM, glucose 0–80 mM, 50 mM sodium phosphate pH 7.4, 45 °C; mode not stated
[1] = substrate: C=C1C[C@@]23CC[C@H]4[C@@](C)(CCC[C@@]4(C)C(=O)O[C@@H]4O[C@H](CO)[C@@H](O)[C@H](O)[C@H]4O)[C@@H]2CC[C@]1(O[C@@H]1O[C@H](CO)[C@@H](O)[C@H](O)[C@H]1O[C@@H]1O[C@H](CO)[C@@H](O)[C@H](O)[C@H]1O)C3; assay: initial velocity of stevioside hydrolysis; assay type: biochemical, Chryseobacterium scophthalmum; settings: 50 mM sodium phosphate pH 6.5, 47.5 °C
purified protein = substrate: O=[N+]([O-])c1ccc(O[C@@H]2O[C@H](CO)[C@@H](O)[C@H](O)[C@H]2O)cc1; assay: purified protein; assay type: biochemical, Chryseobacterium scophthalmum; settings: 50 mM sodium phosphate pH 7.4, 45 °C

Molecule	Ki (CsBGL) [mM]	Km [1] [µM]	kcat [1] [s⁻¹]	Km (purified protein) [µM]	kcat (purified protein) [s⁻¹]
OC[C@H]1OC(O)[C@H](O)[C@@H](O)[C@@H]1O (some centres unmarked) [glucose]	16.4	–	–	–	–
B1	–	1540	248.59	1620	16.77
